Experiments:
[1] = target: T1, HA-tagged K270Stop striatin (human, UniProt O43815 1-269); assay: co-IP; anti-HA immunoprecipitates (12CA5 with protein A-Sepharose, or F7 anti-HA-agarose when probing for Mst3 or Mst4; 1.5 h, 4°C) of lysates (1% Nonidet P-40, 0.135 M NaCl, 10% glycerol, 20 mM Tris pH 8.0) of HEK293 cells transfected with HA-striatins; endogenous partners by immunoblot, partner/HA-striatin ratio by chemilumimager against wild type; 50 mM NaF and 100 nM okadaic acid in the lysis buffer in the …; settings: partners not purified
T1 construct: striatin, human, C-terminal truncation by a stop codon at K270; source: HEK293, transfected, in lysate; not shown: HA, N-terminal, kept
T1 sequence (looked up): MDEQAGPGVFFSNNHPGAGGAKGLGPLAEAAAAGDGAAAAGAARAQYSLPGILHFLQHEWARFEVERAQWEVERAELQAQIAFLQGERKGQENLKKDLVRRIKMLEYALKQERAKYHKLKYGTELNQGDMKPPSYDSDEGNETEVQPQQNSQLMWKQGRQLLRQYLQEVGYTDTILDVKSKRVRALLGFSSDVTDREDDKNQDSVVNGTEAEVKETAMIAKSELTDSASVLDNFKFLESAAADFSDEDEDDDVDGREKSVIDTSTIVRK

[2] = target: T2, HA-tagged F457Stop striatin (human, UniProt O43815 1-456); assay: as above; settings: partners not purified
T2 construct: striatin, human, C-terminal truncation by a stop codon at F457 (loss of seven of eight WD-repeats); residues 1-456 by the mutant's name; source: HEK293, transfected, in lysate; not shown: HA, N-terminal, kept
T2 sequence (looked up): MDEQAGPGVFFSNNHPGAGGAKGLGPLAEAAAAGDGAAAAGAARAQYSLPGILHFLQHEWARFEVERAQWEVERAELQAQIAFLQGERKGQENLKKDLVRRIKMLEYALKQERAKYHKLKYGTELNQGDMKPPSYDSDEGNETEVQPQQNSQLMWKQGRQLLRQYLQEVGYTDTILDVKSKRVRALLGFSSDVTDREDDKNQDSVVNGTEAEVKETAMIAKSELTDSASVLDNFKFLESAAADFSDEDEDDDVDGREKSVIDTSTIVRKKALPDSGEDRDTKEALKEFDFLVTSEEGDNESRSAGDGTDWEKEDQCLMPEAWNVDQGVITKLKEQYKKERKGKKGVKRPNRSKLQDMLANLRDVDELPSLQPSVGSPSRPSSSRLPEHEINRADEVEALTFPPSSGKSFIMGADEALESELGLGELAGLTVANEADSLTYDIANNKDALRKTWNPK

B1: Mob3/phocein (natural protein, human (endogenous in HEK293), UniProt Q9Y3A3 1-225, looked up)
chain: MVMAEGTAVLRRNRPGTKAQDFYNWPDESFDEMDSTLAVQQYIQQNIRADCSNIDKILEPPEGQDEGVWKYEHLRQFCLELNGLAVKLQSECHPDTCTQMTATEQWIFLCAAHKTPKECPAIDYTRHTLDGAACLLNSNKYFPSRVSIKESSVAKLGSVCRRIYRIFSHAYFHHRQIFDEYENETFLCHRFTKFVMKYNLMSKDNLIVPILEEEVQNSVSGESEA
notes: source: endogenous, HEK293 lysate
[1]
  percent reduction in binding against wild-type striatin: 45%
[2]
  percent reduction in binding against wild-type striatin: 29%
